Assay results reported in article PMC8528238 (Nature, 2021).

Molecular target: SARS-CoV-2 D614G stabilized spike ectodomain (SARS-CoV-2, D614G, UniProt A0A6H1PJZ3, D614G)
Experiment: ELISA

B1: DH1041, SARS-CoV-2-specific ACE2-binding site-focused RBD neutralizing antibody (antibody, V domains shown)
VH: EVQLVESGGGLVQPGGSLRLSCAASGVTFSSYWMSWVRQAPGKGLEWVANIRQDGSEKYSVDSVKGRFTISRDNAKNSLYLQMNSLRAEDTAVYYCARARRADNSGYYGFHFDCWGQGTLVTVSS
VL: QSVLTQPPSVSGAPGQRVTISCTGSSSNIGAGYDVHWYQQLPGTAPKLLIYGNNNRPSGVPDRFSDSKSGTSASLAITRLQAEDEADYYCQSYDSSLSGWVFGGGTKLTVL
- binding result: binds

B2: DH1047, cross-neutralizing RBD antibody (antibody, V domains shown)
VH: QVQLVQSGAEVKKPGASVQVSCQASANTFTNHYIHWVRQAPGQGLEWMGIIYPTGGNTIYAQGFQGRVTMTRDTSLNTIYLELSSLRSEDTAVYYCARDVRVDDSWSGYDLLSGGTYFDYWGQGTLVTVSS
VL: not shown
- binding result: binds
